Measured values taken from article PMC5665954, “Coupling fission and exit of RAB6 vesicles at Golgi hotspots through kinesin-myosin interactions” (Nature Communications, 2017).

Experiments:
[1] = target: GST-Myosin II-1148-1652 (human) (UniProt P35579); assay: ELISA; solid-phase assay: 96-well plates coated with 10 µg GST-GFP, GST-Myosin II-1148-1652 or GST-RAB6A:GTP; 0-40 µg 6xHis-RAB6:GTP or 6xHis-KIF20A-529-665 added; 20 mM Hepes pH 7.5, 100 mM NaCl, 5 mM MgCl2; detection with anti-6xHis antibodies, absorbance at 450 nm
[2] = target: the molecule itself; assay: crystal structure; complex of RAB6A-Q72L-8-195 and KIF20A-603-665 at 10 mg/ml; 100 mM Hepes pH 7.4, 200 mM ammonium sulfate, 24% PEG 8K, 2% isopropanol, 17 °C; 2 Å

6xHis-RAB6:GTP, sequence (P20340 whole entry): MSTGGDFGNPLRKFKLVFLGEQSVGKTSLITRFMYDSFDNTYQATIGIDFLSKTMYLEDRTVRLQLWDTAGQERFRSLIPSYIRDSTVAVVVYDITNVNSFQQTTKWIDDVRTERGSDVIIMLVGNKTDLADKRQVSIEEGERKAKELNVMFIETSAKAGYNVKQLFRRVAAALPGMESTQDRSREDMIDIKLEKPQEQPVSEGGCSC

fold lower affinity than RAB6 and Myosin II-1148-1652 have for KIF20A-RBD-529-665 [1] [fold]	Molecule	stoichiometry N [2]
5	6xHis-RAB6:GTP (from UniProt P20340 1-208) (natural protein)	
	KIF20A fragment (603-665) (domain or fragment, UniProt P97329 603-665, looked up, Parallel right-handed coiled-coil dimer with an inter-helical cysteine bridge; also called KIF20A-RBD; source: E. coli BL21 (DE3), co-expressed with m20, purified (Glutathione Sepharose 4B, rTEV cleavage, Ni-NTA); not shown: GST, N-terminal, cleaved) EQWCSERLDNQKELMEELYEEKLKILKESLTTFYQEQIQERDEKIEELETLLQEAKQQPAAQQ	2
